Data from PMC3706390.

Experiments:
Experiment in all cases: EMSA
Settings in all cases: 30 mM Tris-HCl pH 8.0, 75 mM KCl, 5 mM MgCl2, 1 mM DTT, 0.04 ug/uL BSA, 10% glycerol, 50 ng/uL yeast tRNA, 30 C 15 min; EMSA gels 0.5X TBE at 4 C; RNase …
L30 K36A K36A (rat) = L30 K36A K36A (rat) (UniProt P62890)
L30 K87A K87A (rat) = L30 K87A K87A (rat) (UniProt P62890)
L30 L35A L35A (rat) = L30 L35A L35A (rat) (UniProt P62890)
L30 Y89A Y89A (rat) = L30 Y89A Y89A (rat) (UniProt P62890)

PHGPx SECIS 102 nt (REMSA)
binding signal (% of WT binding) (L30 K36A K36A (rat)): 78
binding signal (% of WT binding) (L30 K87A K87A (rat)): 60
binding signal (% of WT binding) (L30 L35A L35A (rat)): 86
binding signal (% of WT binding) (L30 Y89A Y89A (rat)): 32
